US20110300138A1 (published 2011)

Experiments:
[1] = biological target: TSHR (full length) coated on tubes (human) (UniProt P16473); test: inhibition of 125I-K1-18 Fab (competitor) binding to TSHR coated tubes; negative control 0.1 µg/mL in HBD serum
[2] = biological target: human TSH receptor (full length) coated on ELISA plate wells (human) (UniProt P16473); test: TSH-biotin binding inhibition ELISA, TSHR coated wells; 10 µg/mL in HBD serum pool; negative control MAb
[3] = biological target: TSHR (full length) coated on tubes (human) (UniProt P16473); test: inhibition of 125I-K1-18 Fab (competitor) binding to TSHR coated tubes; negative control 100 µg/mL in assay buffer
[4] = biological target: TSH receptor (TSHR), full length human, coated on tubes (human) (UniProt P16473); test: inhibition of 125I-TSH binding to TSHR coated tubes; 0.01 µg/mL, diluted in assay buffer; mean of duplicates
[5] = biological target: human thyroid stimulating hormone receptor (TSHR), full length (human) (UniProt P16473); test: 125I-K1-70 Fab (competitor) binding to TSHR coated tubes; negative control MAb 100 µg/mL in HBD serum
[6] = biological target: human TSH receptor (full length) coated on ELISA plate wells (human) (UniProt P16473); test: TSH-biotin binding inhibition ELISA, TSHR coated wells; 100 µg/mL in assay buffer; negative control MAb
[7] = biological target: thyroid stimulating hormone receptor (TSHR), full length human TSHR (human) (UniProt P16473); test: TSH-biotin competition ELISA, TSHR coated wells; negative control, 1 µg/mL in assay buffer
[8] = biological target: TSH receptor (TSHR), full length human, coated on tubes (human) (UniProt P16473); test: inhibition of 125I-K1-18 IgG binding to TSHR coated tubes; competitor 125I-K1-18 IgG; negative control sample at 0.1 µg/mL in HBD serum
[9] = biological target: TSHR (thyroid stimulating hormone receptor), full length human (human) (UniProt P16473); test: negative control; competitor ^125I-K1-70 IgG, TSHR coated tubes; 0.1 µg/mL in assay buffer
[10] = biological target: TSH receptor (TSHR), full length human, coated on tubes (human) (UniProt P16473); test: inhibition of 125I-K1-18 IgG binding to TSHR coated tubes; competitor 125I-K1-18 IgG; negative control sample at 100 µg/mL in assay buffer
[11] = biological target: TSH receptor (full length human TSHR) (human) (UniProt P16473); test: competition ELISA: inhibition of M22 Fab-peroxidase (competitor) binding to TSHR coated wells; negative control at 0.1 µg/mL diluted in HBD serum pool
[12] = biological target: human thyroid stimulating hormone receptor (TSHR), full length (human) (UniProt P16473); test: 125I-K1-70 Fab (competitor) binding to TSHR coated tubes; negative control MAb 10 µg/mL in HBD serum
[13] = biological target: TSH receptor (TSHR), full length human, coated on tubes (human) (UniProt P16473); test: inhibition of 125I-K1-18 IgG binding to TSHR coated tubes; competitor 125I-K1-18 IgG; negative control sample at 1 µg/mL in assay buffer
[14] = biological target: thyroid stimulating hormone receptor (TSHR), full length human TSHR (human) (UniProt P16473); test: TSH-biotin competition ELISA, TSHR coated wells; 0.01 µg/mL in HBD serum
[15] = biological target: TSHR (full length) coated on tubes (human) (UniProt P16473); test: inhibition of 125I-K1-18 Fab (competitor) binding to TSHR coated tubes; test sample 1 µg/mL in assay buffer
[16] = biological target: TSH receptor (full length human TSHR) (human) (UniProt P16473); test: competition ELISA: inhibition of M22 Fab-peroxidase (competitor) binding to TSHR coated wells; test sample at 1 µg/mL diluted in HBD serum pool
[17] = biological target: thyroid stimulating hormone receptor (TSHR), full length human TSHR (human) (UniProt P16473); test: TSH-biotin competition ELISA, TSHR coated wells; 0.01 µg/mL in assay buffer
[18] = biological target: TSHR (full length) coated on tubes (human) (UniProt P16473); test: inhibition of 125I-K1-18 Fab (competitor) binding to TSHR coated tubes; test sample 0.1 µg/mL in assay buffer
[19] = biological target: TSH receptor (TSHR), full length human, coated on tubes (human) (UniProt P16473); test: inhibition of 125I-K1-18 IgG binding to TSHR coated tubes; competitor 125I-K1-18 IgG; sample at 100 µg/mL in HBD serum
[20] = biological target: TSH receptor (full length human TSHR) coated on tubes (human) (UniProt P16473); test: 125I-TSH binding inhibition read against NIBSC 90/672; 10 ng/mL, in serum
[21] = biological target: thyroid stimulating hormone receptor (full length human TSHR) (human) (UniProt P16473); test: ELISA, inhibition of TSH-biotin binding to TSHR coated wells; 0.1 µg/mL, diluted in HBD serum pool
[22] = biological target: thyroid stimulating hormone receptor (full length human TSHR) (human) (UniProt P16473); test: ELISA: inhibition of M22 Fab-peroxidase (competitor) binding to TSHR coated wells; 10 µg/mL, diluted in HBD serum pool
[23] = biological target: human thyroid stimulating hormone receptor (TSHR), full length (human) (UniProt P16473); test: 125I-K1-18 Fab competition, TSHR coated tubes; 10 µg/mL in HBD
[24] = biological target: human TSH receptor (full length) coated on ELISA plate wells (human) (UniProt P16473); test: TSH-biotin binding inhibition ELISA, TSHR coated wells; 10 µg/mL in assay buffer
[25] = biological target: TSH receptor (TSHR), full length human, coated on tubes (human) (UniProt P16473); test: inhibition of 125I-TSH binding to TSHR coated tubes; 0.1 µg/mL, diluted in assay buffer
[26] = biological target: thyroid stimulating hormone receptor (TSHR), full length, coated on tubes (human) (UniProt P16473); test: inhibition of 125I-TSH binding, TSHR coated tubes; antibody 0.1 µg/mL in HBD serum pool
[27] = biological target: TSH receptor (TSHR) coated on tubes (human) (UniProt P16473); test: inhibition of 125I-K1-70 IgG binding to TSHR coated tubes; sample 1 µg/mL in HBD serum pool

Q: For 5B3 IgG (antibody), which Inhibition of binding (%) [1] is on record?
A: Its Inhibition of binding (%) is -8.3%.

Q: What about the % inhibition of TSH-biotin binding [2] of the same molecule?
A: Its % inhibition of TSH-biotin binding is 11.6%.

Q: What about the Inhibition of binding (%) [3] of the same molecule?
A: Its Inhibition of binding (%) is 6.3%.

Q: What about the Inhibition of binding (%) [4] of the same molecule?
A: The Inhibition of binding (%) was -5.8%.

Q: What about the Inhibition of binding (%) [5] of the same molecule?
A: Its Inhibition of binding (%) is -8.6%.

Q: What about the % inhibition of TSH-biotin binding [6] of the same molecule?
A: Its % inhibition of TSH-biotin binding is 8.3%.

Q: And the Inhibition of binding (%) [7]?
A: Its Inhibition of binding (%) is -8.3%.

Q: What about the Inhibition of binding (%) [8] of the same molecule?
A: The Inhibition of binding (%) was -7.8%.

Q: What about the Inhibition of binding (%) [9] of the same molecule?
A: Its Inhibition of binding (%) is -1.2%.

Q: What about the Inhibition of binding (%) [10] of the same molecule?
A: Its Inhibition of binding (%) is 6.7%.

Q: And the Inhibition of binding (%) [11]?
A: Its Inhibition of binding (%) is 3%.

Q: And the Inhibition of binding (%) [12]?
A: Its Inhibition of binding (%) is -5.7%.

Q: What about the Inhibition of binding (%) [13] of the same molecule?
A: Its Inhibition of binding (%) is -3.8%.

Q: How did the Inhibition of binding (%) [14] turn out when 9D33 IgG (antibody) was run?
A: The Inhibition of binding (%) was 10.1%.

Q: And the Inhibition of binding (%) [15]?
A: The Inhibition of binding (%) was 66.5%.

Q: And the Inhibition of binding (%) [16]?
A: Its Inhibition of binding (%) is 57.8%.

Q: And the Inhibition of binding (%) [17]?
A: Its Inhibition of binding (%) is 15.3%.

Q: What about the Inhibition of binding (%) [18] of the same molecule?
A: Its Inhibition of binding (%) is 48.6%.

Q: What about the Inhibition of binding (%) [19] of the same molecule?
A: Its Inhibition of binding (%) is 68.7%.

Q: With M22 IgG (antibody) as the molecule, how does the units/L [20] read?
A: The units/L was 1.5 units/L.

Q: What about the units/mg [20] of the same molecule?
A: Its units/mg is 150 units/mg.

B1: 5C9 IgG (antibody, from another filing, V domains shown)
VH: EVQLVESGGGLIQPGGSLRLSCAASGFTVSSNYMSWVRQAPGKGLEWVSVTYSGGSTSYADSVKGRFTISRDNSKNTLYLQMNSLRAEDTAVYYCARGGRYCSSISCYARSGCDYWGQGTLVTVSS
VL: AIQMTQSPSSLSASVGDRVTITCRASQSISNYLNWYQQKPGKAPKLLIYAASSLQSGVPSRFSGSGSGTDFTLTISSLQPEDFATYYCQQSYSSPSTTFGQGTKLEIK
Q: Which Inhibition of binding (%) [21] does the source give for B1 here?
A: Its Inhibition of binding (%) is 10.4%.

Q: What about the Inhibition of binding (%) [22] of the same molecule?
A: Its Inhibition of binding (%) is 13%.

Q: What about the Inhibition of binding (%) [23] of the same molecule?
A: Its Inhibition of binding (%) is 49.8%.

Q: What about the % inhibition of TSH-biotin binding [24] of the same molecule?
A: Its % inhibition of TSH-biotin binding is 58.2%.

Q: What about the Inhibition of binding (%) [25] of the same molecule?
A: The Inhibition of binding (%) was 24.4%.

Q: And the Inhibition of binding (%) [26]?
A: Its Inhibition of binding (%) is 16.2%.

Q: And the Inhibition of binding (%) [27]?
A: The Inhibition of binding (%) was 15.4%.
